The source of these data is PMC5748213.

The target in experiment [1] is retromer (VPS26–VPS29–VPS35) (UniProt O75436). Put plainly: ITC.
Experiment [2] shares this target. Put plainly: SEC-MALS.
Another experiment deals with human VPS29 (human) (UniProt Q9UBQ0). Kind of experiment: ITC.

One may read the Kd as the free concentration of one partner at which half of the binding sites on the other are occupied at equilibrium, for simple one-to-one binding. As for “VARPc (VARP residues 396–746, the two cysteine-rich domains) (from UniProt Q96NW4 396-746) (domain or fragment)”, in experiment [1], the Kd turned out to be 3000 nM. This counts as single-digit micromolar.

The substance “TBC1D5TBC (TBC GAP domain of human TBC1D5, residues 1–419) (from UniProt Q92609 1-419) (domain or fragment)” displayed a dissociation constant (Kd) in experiment [1] of 450 nM.

As usually defined, the stoichiometry N is the number of molecules, sites or subunits per partner or assembly. Substance “retromer (VPS26–VPS29–VPS35) (from UniProt O75436;Q9UBQ0;Q96QK1) (complex)” returned a stoichiometry N in experiment [2] of 2.

Substance RidL_(30–236) (domain or fragment) returned a Kd in experiment [1] of 164 nM.

Consider “RidL (Lpg2311/Ceg28), full length (from UniProt Q5ZT54 1-1167) (natural protein)”, for which the Kd in experiment [1] was 151 nM. For the same substance, the Kd with human VPS29 (human) was determined as 181 nM. In addition, in experiment [2], the stoichiometry N (RidL per retromer (printed as 1:1)) amounted to 1 and the stoichiometry N (RidL per retromer (printed as 2:2)) stood at 1.
